Where no end group is shown, it is not given here. [ ]: non-standard residue; d: D form. Phe(4-Br) = N[C@@H](Cc1ccc(Br)cc1)C(=O)O; pGlu = O=C1CC[C@@H](C(=O)O)N1; Nle = CCCC[C@H](N)C(=O)O; Aib = CC(C)(N)C(=O)O

Sequence of wild-type rat apelin receptor tagged at its C-terminus with EGFP (rat) (Q9JHG3 whole entry): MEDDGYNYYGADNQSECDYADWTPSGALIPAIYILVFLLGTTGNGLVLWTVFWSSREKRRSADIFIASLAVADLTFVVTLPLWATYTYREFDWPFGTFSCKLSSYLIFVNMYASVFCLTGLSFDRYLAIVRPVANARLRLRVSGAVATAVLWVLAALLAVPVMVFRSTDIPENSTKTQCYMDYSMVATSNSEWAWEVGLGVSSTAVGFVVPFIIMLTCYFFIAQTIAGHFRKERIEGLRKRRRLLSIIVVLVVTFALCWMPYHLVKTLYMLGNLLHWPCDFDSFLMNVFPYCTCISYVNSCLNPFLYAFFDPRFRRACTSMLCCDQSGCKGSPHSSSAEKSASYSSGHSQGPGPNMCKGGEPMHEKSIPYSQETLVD

This assay concerns the target wild-type rat apelin receptor tagged at its C-terminus with EGFP (rat) (UniProt Q9JHG3). Kind of assay: displacement of 0.2 nM [125I]-pyr-1-apelin-13; membranes of CHO cells expressing rat apelin receptor-EGFP.
Broadly, the Ki is a measure of affinity in units of concentration, obtained from inhibition or displacement. On to XRPRXSHKGPXXX (pGlu at 1; D-Leu at 5; Nle at 11; Aib at 12; paraBrPhe at 13) [D-Leu5-pyr-1-apelin-13 A2 (8)], for which the Ki amounted to 0.12 nM.
Regarding XRPXLSHKGPXXX (pGlu at 1; αMeArg at 4; Nle at 11; Aib at 12; paraBrPhe at 13) [α-MeArg4-pyr-1-apelin-13 A2 (12)], the Ki worked out at 0.56 nM and the factor of weaker affinity compared to 1 was 2 fold.
The molecule [pGlu]RP[azaArg]LSHKGP[Nle][Aib][Phe(4-Br)] [azaArg4-pyr-1-apelin-13 A2 (16)] had a Ki of 1 nM and a factor of weaker affinity compared to 1 of 3 fold.
On to XRPRXSHKGPXXX (pGlu at 1; azaLeu at 5; Nle at 11; Aib at 12; paraBrPhe at 13) [azaLeu5-pyr-1-apelin-13 A2 (18)], for which the Ki came to 0.13 nM.
As for XRPRXSHKGPXXX (pGlu at 1; αMeLeu at 5; Nle at 11; Aib at 12; paraBrPhe at 13) [α-MeLeu5-pyr-1-apelin-13 A2 (14)], the Ki was 0.17 nM.
Molecule XRPRXSHKGPXXX (pGlu at 1; NMeLeu at 5; Nle at 11; Aib at 12; paraBrPhe at 13) [N-MeLeu5-pyr-1-apelin-13 A2 (10)] had a Ki of 0.1 nM.

Values taken from US20200239537A1.
